Assay results from IntAct's records for PubMed 22826121.

B1: Protein KASH5 (Mus musculus), Q80VJ8 (parent)
chain: MHSILRSSLSSREALRMRQLKGLRKERPGRHPLGVRLRAIWTSFLFPNPPHSGGKLRASTAAVEEHQEWSMDLPEGQAGGPTAQMYLWEQPEEASSRPLLSLEEQILNSTFEACDPHKTGTVTVAHLLAYLEAVTGQGPQDVRLQTLARSLDPYGEGAGATVELDTFLVVMRDWIAACQLQGGLERAEETAYEGALASPHLPSVCPEAEESANLESFGGEDPRPEGPATAELLSNLEDLELSNRRLAGENAKLQRSVETAEEGSARLGEEITALRKQLRSTQQALQVAKALDEELEDLKTLAKSLEEQNRSLMAQARHTEKEQQHLAAEVETLQEENEKLLAERDGVKRRSEELATEKDALKRQLCECERLICQREAVLSERTRHAESLARTLEEYRTTTQELRQEISNLEEQLSQSQEGPEELLEGAEAGRVGWIMALPPSLDLEIQAIRQEQDVASAGLSSPLYGVWQWEEVEPEPEPEPEPEPEPEPQEVEFPSEDPARQQTDLQREPVRALEGSRAPCLRLSRSQEEEEEEEESWVLADPSSPLGTYHHKLAPGSSRESCHIVPEMHQALMPVVRDLVPVERSRTQHCLHPQHSPGIRISQHPLVPTPVLGLLLLLLLSILLFSQSPPPTWPHLQLYYLQPPPV
partner: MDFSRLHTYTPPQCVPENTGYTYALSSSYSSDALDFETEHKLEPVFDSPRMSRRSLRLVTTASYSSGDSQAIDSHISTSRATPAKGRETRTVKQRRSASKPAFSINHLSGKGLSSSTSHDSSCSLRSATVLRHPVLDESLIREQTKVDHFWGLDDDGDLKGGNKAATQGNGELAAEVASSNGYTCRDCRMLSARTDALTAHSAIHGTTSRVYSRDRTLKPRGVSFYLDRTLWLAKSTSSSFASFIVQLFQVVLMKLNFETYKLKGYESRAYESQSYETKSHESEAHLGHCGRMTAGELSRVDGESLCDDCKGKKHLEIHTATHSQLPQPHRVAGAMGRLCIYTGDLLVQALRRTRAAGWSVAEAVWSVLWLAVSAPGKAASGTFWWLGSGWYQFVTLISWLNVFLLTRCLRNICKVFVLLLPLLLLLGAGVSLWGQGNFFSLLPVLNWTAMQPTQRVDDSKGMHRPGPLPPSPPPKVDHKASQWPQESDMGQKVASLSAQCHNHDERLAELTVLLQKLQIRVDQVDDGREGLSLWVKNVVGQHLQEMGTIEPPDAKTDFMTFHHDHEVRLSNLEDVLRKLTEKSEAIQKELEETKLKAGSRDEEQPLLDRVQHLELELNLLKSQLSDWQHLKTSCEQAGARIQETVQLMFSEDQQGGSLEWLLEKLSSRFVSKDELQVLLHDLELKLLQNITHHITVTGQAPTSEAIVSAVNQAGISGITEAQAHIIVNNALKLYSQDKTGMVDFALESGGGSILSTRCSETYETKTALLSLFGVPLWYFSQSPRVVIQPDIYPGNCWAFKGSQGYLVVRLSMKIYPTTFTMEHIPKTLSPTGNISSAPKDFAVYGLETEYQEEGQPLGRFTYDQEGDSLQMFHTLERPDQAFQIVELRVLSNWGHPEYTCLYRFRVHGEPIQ
B2: Protein KASH5 (Mus musculus), Q80VJ8 (parent)
chain: B1 chain
partner: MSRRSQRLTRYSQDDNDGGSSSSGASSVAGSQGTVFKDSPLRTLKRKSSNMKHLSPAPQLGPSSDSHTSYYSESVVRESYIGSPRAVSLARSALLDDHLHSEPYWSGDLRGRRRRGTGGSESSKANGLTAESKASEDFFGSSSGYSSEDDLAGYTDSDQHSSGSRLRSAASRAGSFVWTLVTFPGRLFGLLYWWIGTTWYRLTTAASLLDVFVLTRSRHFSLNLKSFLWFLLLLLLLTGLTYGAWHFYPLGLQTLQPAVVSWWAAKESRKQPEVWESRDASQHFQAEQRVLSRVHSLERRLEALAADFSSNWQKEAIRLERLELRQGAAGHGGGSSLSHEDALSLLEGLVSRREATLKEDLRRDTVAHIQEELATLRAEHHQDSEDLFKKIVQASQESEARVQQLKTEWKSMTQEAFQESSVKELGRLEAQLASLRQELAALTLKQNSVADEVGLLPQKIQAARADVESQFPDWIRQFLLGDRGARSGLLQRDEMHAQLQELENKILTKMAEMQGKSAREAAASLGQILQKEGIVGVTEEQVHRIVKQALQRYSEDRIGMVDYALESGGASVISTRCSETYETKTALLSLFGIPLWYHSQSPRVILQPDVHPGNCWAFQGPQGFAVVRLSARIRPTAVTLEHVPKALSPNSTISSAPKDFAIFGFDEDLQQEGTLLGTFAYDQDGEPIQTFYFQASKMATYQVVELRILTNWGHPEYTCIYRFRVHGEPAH
B3: Protein KASH5 (Mus musculus), Q80VJ8 (parent)
chain: B1 chain

Variants of: B1
Details: with sun1_mouse Sun1, Q9D666

Variant	effect of a mutation on the interaction
P645A;P646A;P647A	disrupting interaction strength

Variants of: B2
Details: with sun2_mouse Sun2, Q8BJS4

Variant	effect of a mutation on the interaction
P645A;P646A;P647A	disrupting interaction strength

Variants of: B3
Details: with sun1_human SUN1, O94901
Sequence of sun1_human SUN1, O94901 (O94901 whole entry): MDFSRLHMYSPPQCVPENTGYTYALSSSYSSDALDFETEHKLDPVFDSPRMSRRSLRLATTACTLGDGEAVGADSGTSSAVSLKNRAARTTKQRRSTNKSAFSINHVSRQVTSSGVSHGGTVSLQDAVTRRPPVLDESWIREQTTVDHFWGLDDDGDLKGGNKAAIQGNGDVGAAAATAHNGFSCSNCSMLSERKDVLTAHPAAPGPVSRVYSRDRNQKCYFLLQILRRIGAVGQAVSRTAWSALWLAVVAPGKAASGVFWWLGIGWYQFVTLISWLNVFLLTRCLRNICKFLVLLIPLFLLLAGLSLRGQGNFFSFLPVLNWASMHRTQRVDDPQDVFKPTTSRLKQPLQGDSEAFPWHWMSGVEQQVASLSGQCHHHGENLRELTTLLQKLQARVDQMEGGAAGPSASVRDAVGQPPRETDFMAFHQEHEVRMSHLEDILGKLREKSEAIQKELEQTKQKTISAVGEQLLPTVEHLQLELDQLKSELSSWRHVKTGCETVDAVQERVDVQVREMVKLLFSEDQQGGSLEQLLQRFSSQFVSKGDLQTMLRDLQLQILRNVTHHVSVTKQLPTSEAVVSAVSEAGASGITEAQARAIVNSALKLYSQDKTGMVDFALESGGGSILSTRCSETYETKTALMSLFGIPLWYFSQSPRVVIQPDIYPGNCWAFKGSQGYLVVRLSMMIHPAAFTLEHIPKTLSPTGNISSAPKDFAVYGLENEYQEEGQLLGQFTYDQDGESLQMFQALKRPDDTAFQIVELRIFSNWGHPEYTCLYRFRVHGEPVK

Variant	effect of a mutation on the interaction
P645A;P646A;P647A	disrupting interaction
